± gives the uncertainty stated by the source.
B1: CD2-associated protein, residues 109 to 169; numbered along this chain, Q9Y5K6 (parent)
chain: KKRQCKVLFEYIPQNEDELELKVGDIIDINEEVEEGWWSGTLNNKLGLFPSNFVKELEVTD

Variants of: B1
Experiment: abundance fitness (aPCA) (normalised: wild type 0, dead -1); higher = more abundant; growth selection in yeast, the domain comes from the species named
Details: Homo sapiens

| Variant | abundance fitness |
| --- | --- |
| KKRQCKVLFEYIPQNEDELELKVGDIIDINEEVEMGWWSGTLNNKLGLFPSNFVKELEVTD [E35M] | -0.169 ± 0.25 |
| KKRQCKVLFEYIPQNEDELELKVGDIIDINEEVEEGWWSGTLNNKLGLFPSNFVKELWVTD [E58W] | 0.098 ± 0.16 |
| KKRQCKVLFEYIPQNEDELELKVGDIIDINEEVEEGWWSGTLNNKLGLFPSNFVKELVVTD [E58V] | 0.078 ± 0.14 |
| KKRQCKVLFEYIPQNEDELELEVGDIIDINEEVEEGWWSGTLNNKLGLFPSNFVKELEVTD [K22E] | -0.66 ± 0.38 |
| KKRQCKVLFEYIPQNEDELELHVGDIIDINEEVEEGWWSGTLNNKLGLFPSNFVKELEVTD [K22H] | 0.219 ± 0.29 |
| KKRQGKVLFEYIPQNEDELELKVGDIIDINEEVEEGWWSGTLNNKLGLFPSNFVKELEVTD [C5G] | 0.235 ± 0.054 |
| KKRQCKELFEYIPQNEDELELKVGDIIDINEEVEEGWWSGTLNNKLGLFPSNFVKELEVTD [V7E] | -0.999 ± 0.37 |
| KKRQCKVLFEYIWQNEDELELKVGDIIDINEEVEEGWWSGTLNNKLGLFPSNFVKELEVTD [P13W] | -0.881 ± 0.29 |
| KKRQCKVLFEYIPQNEDELELKVGDIIDINEEVEEGWWSGTLNNKLGLFPSNFVPELEVTD [K55P] | -1.05 ± 0.31 |
| KKRQCKVLFEYIPQNEDELELKVGDIIDINEEVEEGWWSGTLNNKLGLFPSNFVKWLEVTD [E56W] | -0.769 ± 0.19 |
| KKRQCKVLFEYIPQREDELELKVGDIIDINEEVEEGWWSGTLNNKLGLFPSNFVKELEVTD [N15R] | 0.153 ± 0.078 |
| KKRQCKVLFEYIPQSEDELELKVGDIIDINEEVEEGWWSGTLNNKLGLFPSNFVKELEVTD [N15S] | -0.04 ± 0.086 |
| KKRQCKVLFEYIPQKEDELELKVGDIIDINEEVEEGWWSGTLNNKLGLFPSNFVKELEVTD [N15K] | -0.041 ± 0.18 |
| KKRQCKVLFEYIPQNEDELELKVGDIIDIREEVEEGWWSGTLNNKLGLFPSNFVKELEVTD [N30R] | -0.171 ± 0.11 |
| KKRQCKVLFEYIPQNEDELELKVGDIIDIEEEVEEGWWSGTLNNKLGLFPSNFVKELEVTD [N30E] | 0.302 ± 0.24 |
| KKRQCKVLFEYIPQNEDELELKVGDIIDIQEEVEEGWWSGTLNNKLGLFPSNFVKELEVTD [N30Q] | -0.043 ± 0.19 |
| KKRQCKVLFEYIPQNEDELELKVGDIIDIVEEVEEGWWSGTLNNKLGLFPSNFVKELEVTD [N30V] | 0.101 ± 0.15 |
| KKRQCKVLFEYIPQNEDELESKVGDIIDINEEVEEGWWSGTLNNKLGLFPSNFVKELEVTD [L21S] | -0.719 ± 0.21 |
| KKRQCKVLFEYIPQNEDELEVKVGDIIDINEEVEEGWWSGTLNNKLGLFPSNFVKELEVTD [L21V] | -0.678 ± 0.22 |
| KKRQCKVLFEYIPQNEDELEAKVGDIIDINEEVEEGWWSGTLNNKLGLFPSNFVKELEVTD [L21A] | -0.838 ± 0.19 |
| KKRQCKVLFEYIPQNEDELELKVGPIIDINEEVEEGWWSGTLNNKLGLFPSNFVKELEVTD [D25P] | -0.401 ± 0.19 |
| KKRQCKVLFEYIPQNEDELELKVGVIIDINEEVEEGWWSGTLNNKLGLFPSNFVKELEVTD [D25V] | -0.733 ± 0.2 |

| Variant | abundance fitness |
| --- | --- |
| KKRQCKVLFEYIPQNEDELELKVGAIIDINEEVEEGWWSGTLNNKLGLFPSNFVKELEVTD [D25A] | -0.339 ± 0.15 |
| KKRQCKVLFEYIPQNEDELELKVGDIIDINEEVEEGWWSGTLHNKLGLFPSNFVKELEVTD [N43H] | -0.014 ± 0.21 |
| KNRQCKVLFEYIPQNEDELELKVGDIIDINEEVEEGWWSGTLNNKLGLFPSNFVKELEVTD [K2N] | -0.227 ± 0.28 |
| KYRQCKVLFEYIPQNEDELELKVGDIIDINEEVEEGWWSGTLNNKLGLFPSNFVKELEVTD [K2Y] | -0.183 ± 0.41 |
| KKRQCKVLFEYIPQNEDELELKVGDIIDINEEVEEGWWSGTLNNKLGLFPSNCVKELEVTD [F53C] | 0.067 ± 0.12 |
| KKRQCKVLFEYIPQNEDELELKVGDIIDINEEVEEGWWSGTLNNKLGLFPSNAVKELEVTD [F53A] | 0.015 ± 0.13 |
| KKRQCKVLFEYIPQNEDELELKFGDIIDINEEVEEGWWSGTLNNKLGLFPSNFVKELEVTD [V23F] | -0.687 ± 0.33 |
| IKRQCKVLFEYIPQNEDELELKVGDIIDINEEVEEGWWSGTLNNKLGLFPSNFVKELEVTD [K1I] | -0.241 ± 0.4 |
| KKRQCKVLFEYIPQNEDELELKVGDIIDINEEVEEGWWSGTLNNKLGLYPSNFVKELEVTD [F49Y] | -0.27 ± 0.4 |
| KKRQCKVLFEYIPQNEDELELKVGDIIDINEEVEEGWWSGTLNNKLGLFVSNFVKELEVTD [P50V] | -1.03 ± 0.41 |
| KKRQCKVLFEYIPQNEDELELKVGDIIDINEEVEEGWWSGTLNNALGLFPSNFVKELEVTD [K45A] | -0.779 ± 0.21 |
| KKRQCKVLFEYIPQNEDELELKVGDGIDINEEVEEGWWSGTLNNKLGLFPSNFVKELEVTD [I26G] | -1.03 ± 0.25 |
| KKRQCKVLFEYIPQNEDELELKVGDIIDINEEVEEGWWSGTLNNKNGLFPSNFVKELEVTD [L46N] | 0.074 ± 0.056 |
| KKRQCKVLFEYIPQNEDELELKVGDIIDINEEVEEGWWDGTLNNKLGLFPSNFVKELEVTD [S39D] | -0.696 ± 0.28 |
| KKRQCKVLFEYIPQNEDELELKVGDIIGINEEVEEGWWSGTLNNKLGLFPSNFVKELEVTD [D28G] | -0.581 ± 0.13 |
| KKRQCKVLFEYIPQNEDELELKVGDIIDINEEVEEGWWSGTLNNKLGLFPSNFRKELEVTD [V54R] | -0.969 ± 0.31 |
| KKRQCKVLFEYIPQNEDELELKVGDIIDINEEVEEGWWSGTLNNKLGLFPSNFFKELEVTD [V54F] | -0.416 ± 0.33 |
| KKRQCKVLFEYIPQNEDELELKVGDIIDINEEVEEGWWSGTLNNKLGLFPSNFWKELEVTD [V54W] | -0.903 ± 0.24 |
| KKRQCKVLFEYIPQNEDELELKVGDIIDINEEVEEGWWSGTLNNKLDLFPSNFVKELEVTD [G47D] | -0.611 ± 0.19 |
| KKRQCKVLFEYIPQNEDELELKVGDIIDINEEVEEGWWSGTLNNKLILFPSNFVKELEVTD [G47I] | -0.584 ± 0.35 |
| KKRQCKVLFEYIPQNEVELELKVGDIIDINEEVEEGWWSGTLNNKLGLFPSNFVKELEVTD [D17V] | 0.051 ± 0.14 |

— the Human Domainome abundance scans (Beltran et al. 2025)
